The conditions of data set [1]: mouse, in vivo.
Experimental: Three kinds of fluorescein (FAM)-labeled peptides shown in Table 7 were purchased from Eurofins Genomics K.K. 1 mg of each of the peptides was separately dissolved in 4 mL of PBS to prepare an administration solution (0.25 mg/mL).
Eighteen Crl:CD1 (ICR) mice (male) (Jackson Laboratory Japan, Inc.) were subjected to 7 or more days of adaptation after their arrival and receipt, then divided by three per group into the six groups as in Table 8, and used in the following experiments. The administration solution (1 mg/4 mL/kg) was administered to the tail vein of a non-fasting mouse through use of a syringe equipped with an injection needle. A dose for each individual was calculated from a body weight measured on the day of the administration.
After the completion of the administration, about 0.1 mL of blood was collected from a jugular vein without anesthesia at the predetermined time points of collection shown in Table 8 through use of a heparin-treated syringe equipped with an injection needle. At the final time point of collection, whole blood was collected from a posterior aorta under isoflurane anesthesia. The collected blood was promptly transferred to a polypropylene tube and cooled on ice. The collected whole blood was centrifuged (about 10,000×g, 3 minutes, 4° C.), and the plasma sample was promptly dispensed and light-shielded in a sample storage container. The plasma samples were cryopreserved until measurement (control temperature: about −80° C.).
A freeze-thawed plasma sample (10 μL) was diluted 10-fold with PBS (90 μL), and measured for its fluorescence intensity with a plate reader (SPARK™ multi-detection mode microplate reader, Tecan Group Ltd.) (excitation wavelength: 495 nm; emission wavelength: 520 nm). […] The peptide concentrations in plasma thus obtained were logarithmically plotted against post-administration time, four time points including the final blood collection point were exponentially approximated (Microsoft Excel, Microsoft Corporation), and an elimination half-life was calculated from a slope of the straight line. […]
Data set [2] in a line: Average particle diameter of peptide assembly by dynamic light scattering. The settings on record: 10 mM HEPES, 150 mM NaCl buffer (pH 7); 40 mM DMSO stock diluted 100-fold; stood overnight; 25° C.; main peak of scattering intensity. The format is physicochemical. The method, then: 5 mg of each of the peptides of Examples 1-1 to 1-5 and Reference Examples 1-1 to 1-8 was dissolved in dimethyl sulfoxide (DMSO) to provide a stock solution (40 mM). To a 10 mM HEPES and 150 mM NaCl buffer (pH 7) under stirring with a micromixer (E-36, Taitec Corporation), 4 μL of the stock solution was dropped to be diluted 100-fold. The dilution was vortexed and then left to stand still at room temperature overnight. Then, 200 μL of the dilution was used as a measurement sample and measurement of particle diameter distribution was performed at 25° C. by dynamic light scattering with Litesizer 500 (Anton Paar GmBH). The results determined by defining the main peak of a scattering intensity as the average particle diameter of an assembly are shown in Table 3. Provided that, when a polydispersity index was more than 20%, the main peak was determined with further reference to a volume-based particle diameter distribution.

Data set [3] in a line: Binding affinity to first target (HA): adsorption isotherm on hydroxyapatite beads. The settings on record: hydroxyapatite magnetic beads; 10 mM HEPES (pH 7.4)/1% DMSO; 4° C., 4 hours; tryptophan fluorescence; read-out: Dissociation constant (KD). The procedure: The peptides of Examples 1-2 and 1-5 and a HA-binding peptide A (DSpSEEKW: SEQ ID NO: 17) forming the HA binding site of each of the peptides were each evaluated for peptide binding affinity to hydroxyapatite beads (1 μm BcMag™ Hydroxyapatite Magnetic Particles (Bioclone Inc., catalog No. FO-101)). Specifically, the beads were weighed and suspended in a 100 mM sodium phosphate buffer (pH 7.4)/20% ethanol so as to have 30 mg/mL. 267 μL of the suspension of the beads ultrasonicated to be dispersed homogenously was dispensed in a 1.5 mL tube. The beads were fixed with a magnetic stand (Takara Bio Inc., Magnetic Stand (6 tubes), product code: 5328), followed by removal of a supernatant, and then 100 μL of a peptide solution was added. The peptide solution was prepared by diluting the 100 mM stock solution (in DMSO) to 40 μM with 10 mM HEPES (pH 7.4)/1% DMSO and further serially diluting the solution from 4-fold to 5-fold. After stirring at 4° C. for 4 hours, the tube was stood in the magnetic stand for fixing the beads, and a supernatant was recovered. A peptide concentration in the supernatant was measured with a plate reader (VARIO-SCAN, Thermo Fischer Scientific Inc.) based on a fluorescence intensity derived from tryptophan in a sequence (excitation wavelength: 280 nm; emission wavelength: 355 nm) through use of 50 μL of the supernatant. The amount of the peptide bound to the beads was determined by subtracting the peptide concentration in the supernatant from a total peptide concentration, and the adsorption isotherm thus obtained was subjected to curve fitting to a theoretical formula (Microsoft Excel, Microsoft Corporation), thereby determining a dissociation constant KD of the peptide to the hydroxyapatite beads.

Data set [4] addresses Arg-gingipain (Rgp). The data set can be described thus: Binding affinity to second target (Rgp) by SPR (Biacore-T100). The settings on record: immobilized Rgp, 10 mM HEPES (pH 7.4), 150 mM NaCl, 0.05% Tween, 0.2% DMSO, peptide 25-1,600 nM, read-out: Dissociation constant (KD). The method, then: The peptide of Example 1-2 and an Rgp-binding peptide A (RRKRR: SEQ ID NO: 16) forming the Rgp binding site of the peptide were each measured for its binding affinity to Rgp by SPR using “Biacore-T100” (GE Healthcare). The measurement was performed according to a common method. Specifically, the measurement of the peptide of Example 1-2 was performed through bonding streptavidin (Extravidin SIGMA E2511) to a chip (CM5 sensor chip) by amine coupling, and then immobilizing Rgp biotinylated with a 20-fold molar ratio of an NHS-biotinylation reagent (EZ-Link™ Sulfo-NHS-SS-Biotin, Thermo Fischer Scientific Inc.). Meanwhile, the measurement of the Rgp-binding peptide A was performed through directly immobilizing Rgp on a CM5 sensor chip by amine coupling from the viewpoint of measurement sensitivity.
Next, the peptide stock solution (in DMSO) was diluted with a running buffer (10 mM HEPES (pH 7.4), 150 mM NaCl, 0.05% Tween, 0.2% DMSO) to prepare peptide solutions having final peptide concentrations of 25 nM, 100 nM, 400 nM, and 1,600 nM. Those peptide solutions having the four concentrations were used to provide sensorgrams indicating weight changes caused by binding between Rgp immobilized on the chip and the peptide. […]
(In general: Surface plasmon resonance follows binding to a sensor surface in real time, without labels.)

The nature of data set [5]: pH dependency of particle diameter of peptide assembly (dynamic light scattering). Format: physicochemical. The following applies: 25° C.; for Average particle diameter, pH 6: 10 mM MES, 150 mM NaCl buffer (pH 6.0); for Average particle diameter, pH 7: dilution A (pH 6.0) diluted with 10 mM HEPES, 150 mM NaCl buffer (pH 7.4). The method, then: 5 mg of each of the peptides of Examples 2-1 and 2-2 was dissolved in DMSO to provide a stock solution (50 mg/mL). To a 10 mM MES and 150 mM NaCl buffer (pH 6.0) under stirring with a micromixer (E-36, Taitec Corporation), 4 μL of the stock solution was dropped to be diluted 100-fold. Thus, a dilution A was obtained. The dilution A was vortexed and then left to stand still at room temperature overnight. 100 μL of the dilution A was used and diluted with 300 μL of the same MES buffer or a 10 mM HEPES and 150 mM NaCl buffer (pH 7.4), and stirred for 1 hour. Thus, a dilution B was obtained. 200 μL of each of the dilution A and the dilution B after having been left to stand still overnight was used as a measurement sample and measurement of particle diameter distribution was performed at 25° C. with Litesizer 500 (Anton Paar GmBH).

The target of data set [6] is Arg-gingipain (Rgp). Briefly: SPR (Biacore T100); biotinylated Rgp captured on streptavidin-coupled CM5 chip; peptide as analyte at 25-1,600 nM; KD per peptide.

From patent US20260092084A1, “PEPTIDE AND ASSEMBLY OR COMPOSITION CONTAINING SAID PEPTIDE” (priority 2022, published 2026) come the findings set out here.

Square brackets hold non-standard residues; d marks the D form. Ends that are not written are not given here. * marks the point of attachment. 5(6)‑FAM = 5(6)-carboxyfluorescein; pS = N[C@@H](COP(=O)(O)O)C(=O)O; Tfa = O=C(C(F)(F)F)*

The Kd is the concentration at which binding is half-saturated.

In data set [1], “5(6)-FAM-GYSEWRKWEL ({5(6)‑FAM}-GYSEWRKWEL-NH2) [Comparative Example 1]” displayed an Elimination half-life of 1.3 h.

“5(6)-FAM-GYSEWRKWEL-LLLLLL ({5(6)‑FAM}-GYSEWRKWELLLLLLL-NH2) [Comparative Example 2]”: the Elimination half-life in data set [1] was determined as 16.7 h.

Turning to “5(6)-FAM-GYSEWRKWEL-LLLLLLGG-HWRGWV ({5(6)‑FAM}-GYSEWRKWELLLLLLLGGHWRGWV-NH2) [Example 3-1]”, in data set [1], the Elimination half-life is on record as 133 h.

Turning to “DSpSEEK-AAEAAEAA-RRK(Tfa)RR (DS[pS]EEKAAEAAEAARRK(Tfa)RR-NH2; N-terminus assumed; SMILES C[C@H](NC(=O)[C@H](C)NC(=O)[C@H](CCC(=O)O)NC(=O)[C@H](C)NC(=O)[C@H](C)NC(=O)[C@H](CCCCN)NC(=O)[C@H](CCC(=O)O)NC(=O)[C@H](CCC(=O)O)NC(=O)[C@H](COP(=O)(O)O)NC(=O)[C@H](CO)NC(=O)[C@@H](N)CC(=O)O)C(=O)N[C@@H](CCC(=O)O)C(=O)N[C@@H](C)C(=O)N[C@@H](C)C(=O)N[C@@H](CCCNC(=N)N)C(=O)N[C@@H](CCCNC(=N)N)C(=O)N[C@@H](CCCCNC(=O)C(F)(F)F)C(=O)N[C@@H](CCCNC(=N)N)C(=O)N[C@@H](CCCNC(=N)N)C(N)=O) [Example 1-4]”, the Average particle diameter in data set [2] came out at 450 nm.

As to “DSpSEEKW (DS[pS]EEKW) [HA-binding peptide A, reference compound]”, the Kd in data set [3] was 710 nM.

With “DSpSEEKW-LLELLELL-KGKILRPR (DS[pS]EEKWLLELLELLKGKILRPR-NH2; N-terminus assumed; SMILES CC[C@H](C)[C@H](NC(=O)[C@H](CCCCN)NC(=O)CNC(=O)[C@H](CCCCN)NC(=O)[C@H](CC(C)C)NC(=O)[C@H](CC(C)C)NC(=O)[C@H](CCC(=O)O)NC(=O)[C@H](CC(C)C)NC(=O)[C@H](CC(C)C)NC(=O)[C@H](CCC(=O)O)NC(=O)[C@H](CC(C)C)NC(=O)[C@H](CC(C)C)NC(=O)[C@H](Cc1c[nH]c2ccccc12)NC(=O)[C@H](CCCCN)NC(=O)[C@H](CCC(=O)O)NC(=O)[C@H](CCC(=O)O)NC(=O)[C@H](COP(=O)(O)O)NC(=O)[C@H](CO)NC(=O)[C@@H](N)CC(=O)O)C(=O)N[C@@H](CC(C)C)C(=O)N[C@@H](CCCNC(=N)N)C(=O)N1CCC[C@H]1C(=O)N[C@@H](CCCNC(=N)N)C(N)=O) [Example 1-5]”, the Kd in data set [3] was less than 40 nM. This molecule also showed an Average particle diameter in data set [2] of 5 nm.

“DSpSEEKW-LLELLELL-RRKRR (DS[pS]EEKWLLELLELLRRKRR-NH2; N-terminus assumed; SMILES CC(C)C[C@H](NC(=O)[C@H](CC(C)C)NC(=O)[C@H](CCC(=O)O)NC(=O)[C@H](CC(C)C)NC(=O)[C@H](CC(C)C)NC(=O)[C@H](CCC(=O)O)NC(=O)[C@H](CC(C)C)NC(=O)[C@H](CC(C)C)NC(=O)[C@H](Cc1c[nH]c2ccccc12)NC(=O)[C@H](CCCCN)NC(=O)[C@H](CCC(=O)O)NC(=O)[C@H](CCC(=O)O)NC(=O)[C@H](COP(=O)(O)O)NC(=O)[C@H](CO)NC(=O)[C@@H](N)CC(=O)O)C(=O)N[C@@H](CCCNC(=N)N)C(=O)N[C@@H](CCCNC(=N)N)C(=O)N[C@@H](CCCCN)C(=O)N[C@@H](CCCNC(=N)N)C(=O)N[C@@H](CCCNC(=N)N)C(N)=O) [Example 1-2]”: the Kd was 1.3 nM on Arg-gingipain (Rgp) [4] and 1400 nM in data set [3]. In data set [2], the Average particle diameter is given as 250 nm.

As to “DSpSEEKW-WEWWEWW-RRK(Tfa)RR (DS[pS]EEKWWEWWEWWRRK(Tfa)RR-NH2; N-terminus assumed; SMILES N=C(N)NCCC[C@H](NC(=O)[C@H](CCCNC(=N)N)NC(=O)[C@H](CCCCNC(=O)C(F)(F)F)NC(=O)[C@H](CCCNC(=N)N)NC(=O)[C@H](CCCNC(=N)N)NC(=O)[C@H](Cc1c[nH]c2ccccc12)NC(=O)[C@H](Cc1c[nH]c2ccccc12)NC(=O)[C@H](CCC(=O)O)NC(=O)[C@H](Cc1c[nH]c2ccccc12)NC(=O)[C@H](Cc1c[nH]c2ccccc12)NC(=O)[C@H](CCC(=O)O)NC(=O)[C@H](Cc1c[nH]c2ccccc12)NC(=O)[C@H](Cc1c[nH]c2ccccc12)NC(=O)[C@H](CCCCN)NC(=O)[C@H](CCC(=O)O)NC(=O)[C@H](CCC(=O)O)NC(=O)[C@H](COP(=O)(O)O)NC(=O)[C@H](CO)NC(=O)[C@@H](N)CC(=O)O)C(N)=O) [Example 1-3]”, the Average particle diameter in data set [2] was determined as 350 nm.

Regarding “GRSHHKRK-LLELLELL-HRHHVQER (GRSHHKRKLLELLELLHRHHVQER; a peptide designed to have two hydrophilic regions and a hydrophobic region located therebetween) [Example 2-1]”, in data set [5], the “Average particle diameter, pH 6” value is recorded as 440 nm and the “Average particle diameter, pH 7” value was determined as 4 nm.

With “HHIRRKRQ-WWEWWEWW-HGDHHKSN (HHIRRKRQWWEWWEWWHGDHHKSN; a peptide designed to have two hydrophilic regions and a hydrophobic region located therebetween) [Example 2-2]”, in data set [5], the “Average particle diameter, pH 6” value was 4,400 nm and the “Average particle diameter, pH 7” value is listed as 210 nm.

In the case of “KGKILRPR-AAAAAAAA (KGKILRPRAAAAAAAA-NH2) [1-8]”, in data set [2], the Average particle diameter was >1,000 nm.

“KGKILRPR-AAEAAEAA (KGKILRPRAAEAAEAA-NH2) [1-7]” showed an Average particle diameter in data set [2] of 520 nm.

“KGKILRPR-FFFFFFFF (KGKILRPRFFFFFFFF-NH2) [1-4]” showed an Average particle diameter in data set [2] of 50 nm.

Molecule “KGKILRPR-LLELLELL (KGKILRPRLLELLELL-NH2) [Reference Example 1-5]” had an Average particle diameter in data set [2] of 5 nm.

For the molecule “KGKILRPR-LLLLLLLL (KGKILRPRLLLLLLLL-NH2) [1-1]”, in data set [2], the Average particle diameter is listed as 36 nm.

For “KGKILRPR-WWEWWEWW (KGKILRPRWWEWWEWW-NH2) [1-6]”, the Average particle diameter in data set [2] is 10 nm.

“KGKILRPR-WWWWWWWW (KGKILRPRWWWWWWWW-NH2) [1-3]”: the Average particle diameter in data set [2] was found to be 920 nm.

Consider “KGKILRPR-YYYYYYYY (KGKILRPRYYYYYYYY-NH2) [1-2]”, for which, in data set [2], the Average particle diameter was determined as 210 nm.

For the molecule “RRKRR [Rgp-binding peptide A, reference compound]”, the Kd on Arg-gingipain (Rgp) [4] came to 400 nM.

B1: peptide of Example 1-2 (DSpSEEKW-LLELLELL-RRKRR) (peptide)
peptide: DSSEEKWLLELLELLRRKRR
modifications: pS = phosphorylated serine (third residue of DSpSEEKW); C-terminal carboxyl group amidated
Regarding B1, in the data set with Arg-gingipain (Rgp) [6], the dissociation constant Kd came out at 1.3 nM.
